According to PMC2615049:

Tests used:
[1] = target: Bovine cationic trypsin (bovine); assay: equilibrium titration with spectrophotometric assay of residual free trypsin
[2] = target: Bovine cationic trypsin (bovine); assay: ITC

| Substance | Kd [1] [nM] | dH (enthalpy of dissociation, ΔHd, at 25 °C, HEPES buffer) [2] [kcal/mol] |
| --- | --- | --- |
| C14S BPTI variant (natural protein) | 0.17 | – |
| C14S/C38S BPTI variant (natural protein) | – | 10.6 |
